Source: patent US20190144550A1 (Pfizer, published 2019)

Legend:
[1] = target: T1, Monomeric 8-histidine tagged human EGFRvIII extracellular domain (human, UniProt P00533 298-645); experiment: SPR, scFv-Fc captured by anti-human Fc, 37 C
T1 construct: Analyte in all SPR assays; not shown: 8-histidine tag
Method: The scFv fragment was then fused to human IgG1 Fc moiety to facilitate recombinant expression and purification. Affinities of the scFv-Fc fusion proteins were measured at 37° C. on a surface plasmon resonance Biacore™ T200 biosensor equipped with an anti-human Fc coupled CM4 sensor chip (GE Healthcare Inc., Piscataway, N.J.) as described above. scFv-Fc proteins were captured by anti-human Fc. Monomeric 8-histidine tagged human EGFRvIII extracellular domain was then injected as the analyte at 10-fold dilution series starting at 1000 nM.

[2] = target: T2, 8-histidine tagged recombinant wild-type protein EGFRwt (UniProt P00533 25-645, limits assumed); experiment: SPR, captured by anti-human Fc, 25 C
T2 construct: not shown: 8-histidine tag

[3] = target: T2, 8-histidine tagged recombinant …; experiment: SPR, captured by anti-mouse Fc
[4] = target: T3, human EGFRvIII expressed on cells (human, UniProt P00533 298-1210); experiment: flow cytometry, F98-npEGFRvIII against F98, F98-EGFRwt and A431 cells
T3 construct: the F98-npEGFRvIII line was obtained from ATCC and its construct is not described; also called F98-npEGFRvIII; F98-EGFRvIII

[5] = target: T3, human EGFRvIII expressed on cells; experiment: flow cytometry, F98-npEGFRvIII cells
[6] = target: T1, Monomeric 8-histidine tagged human …; experiment: SPR, captured by anti-mouse Fc, 37 C
Source text: To generate human antibodies against EGFRvIII, transgenic AlivaMab mice (Ablexis LLC, San Francisco, Calif.) were immunized with alternating schedule of paraformaldehyde-fixed rat glioblastoma cell line expressing EGFRvIII, F98-npEGFRvIII (American Type Culture Collection, Manassas, Va.) and peptides (SEQ ID NO: 227: […]) directed to the junction region in EGFRvIII. Hybridomas were generated using standard techniques. To determine the binding affinity and specificity of these hybridomas to EGFRvIII, antibodies in culture supernatants were captured by anti-mouse Fc using Biacore™ T200 biosensor equipped with anti-mouse Fc coupled CM4 sensor chips (Biacore™ AB, Uppsala, Sweden—now GE Healthcare). Monomeric 8-histidine tagged human EGFRvIII extracellular domain was then injected as the analyte at 10-fold dilution series starting with top concentration 1000 nM. Affinity of anti-EGFRvIII antibodies towards human EGFRvIII was measured at 37° C.

Binder	Kd [1]	koff [1]	kon [1]	binding result [2]	binding result [3]	fold MFI on EGFRvIII expressing cell line over non-expressing cell lines [4]	% positive [5]	MFI [5]	Kd [6]	koff [6]	kon [6]
20B9.LH scFv-Fc protein (Fc fusion, LH: light-chain variable domain at the N-terminus; not shown: human IgG1 Fc moiety) EIVMTQSPATLSVSPGERATLSCRVSQSIGANLAWYQQKFGQAPRLLIYGASTRATGIPVRFSGGGSGTEFTLTISSLQSEDFAIYSCQQYIYWPFTFGPGTTVDIKGGGGSGGGGSGGGGSGGGGSQVTLKESGPVLVKPTETLTLTCTVSGFSLSNARMGVSWIRQPPGKALEWLGHIFSTDEKSYSTSLRGRITISKDTSRGLVVLTLTNMDPVDTATYYCARDSSNYEGYFDFWGPGFLVTVSS	82.7 nM	0.0025 s⁻¹	30000 M⁻¹ s⁻¹	no binding (tested: 1000 nM)							
32A10.LH scFv-Fc protein (Fc fusion, LH: light-chain variable domain at the N-terminus; not shown: human IgG1 Fc moiety) EVVMTQSPATLSVSPGERVTLSCRASQSVSSNFAWYQQRPGQAPRLLLYGATTRATGLPGRFSGSGSGTENILTISSLQSEDFAIYFCQQYKDWPFTFGPGSKVDIKGGGGSGGGGSGGGGSGGGGSQVTLKESGPVLVKPTETLTLTCTVSGFSLSNARMGVSWIRQPPGKALEWLAHIFSTDEKSIRRSLRSRLTLSKDTSKSQVVLTMTNMDPVDTATYFCARDSSNYEGYFDYWGQGTLVTVSS	29.8 nM	0.0012 s⁻¹	41000 M⁻¹ s⁻¹	no binding (tested: 1000 nM)							
11F10 (antibody, V domains shown, Hybridoma supernatant (AlivaMab mouse); captured/detected via mouse Fc) VH: QVTLKESGPVLVKPIETLTLTCTVCGFSLSNPRMGVSWIRQPPGKALEWLGHIFSSDEKSYRLFLRSRLSISKDTSKSQVVLTMTNMDPVDTATYYCARDSSDYEGYFDYWGQGTLVTVSS VL: EIVMTQSPATLSVSPGERTTLSCRASQSVGSNLAWYQQKPGQAPRLLIYGASTRASGVPARFSGSGSGTEFTLTISSLQSEDFAVYSCQEYNNWPFTFGQGTKVEIK					no binding (tested: 1000 nM)	≥ 10 fold	98%	3280	42.4 nM	0.00281 s⁻¹	66300 M⁻¹ s⁻¹
C6.HL scFv-Fc protein (Fc fusion, HL: heavy-chain variable domain at the N-terminus; not shown: human IgG1 Fc moiety) QVQLVQSGAEVKKPGSSVKVSCKASGDTFSSNAISWVRQAPGQGLEWMGVIIPIFGTADYAQKFQGRVTITADESTSTAYMELSSLRSEDTAVYYCARHTYHEYAGGYYGGAMDPWGQGTLVTVSSGGGGSGGGGSGGGGSGGGGSELQSVLTQPPSASGTPGQRVTISCSGSSSNIGSNYVYWYQQLPGTAPKILIYRNNQRPSGVPDRFSGSKSGTSASLAISGLRSEDEADYYCAAWDDNLSGWVFGTGTKLTVL	1060 nM	0.02 s⁻¹	19000 M⁻¹ s⁻¹	no binding (tested: 1000 nM)							
29D5 (antibody, V domains shown, Hybridoma supernatant (AlivaMab mouse); captured/detected via mouse Fc) VH: QVTLKESGPVLVKPTETLTLTCTVSGFSLSNPRMGVSWLRQPPGKALEWFAHIFSTDEKSYSPSLRGRLTVSKDTSKSQVVLTLTNMDPVDTATYYCARDSSNYEGYFDYWGQGTLVTVSS VL: KIVMTQSPATLSVSPGERATLSCRANQIVSSNLAWYQQKPGQAPRLLVFGTSTRATGIPIRFSGSGSGTEFTLTVSSLQSEDFAVYVCQQYNDWPFTFGPGTKVDIK					no binding (tested: 1000 nM)	≥ 10 fold	97.9%	2830	41.6 nM	0.00424 s⁻¹	102000 M⁻¹ s⁻¹
14C11 (antibody, V domains shown, Hybridoma supernatant (AlivaMab mouse); captured/detected via mouse Fc) VH: QVTLKESGPVLVKPTETLTLTCTVSGFSLNNARMGVSWIRQPPGKALEWFAHIFSTDEKSFRTSLRSRLTLSKDTSKSQVVLTMTNMDPVDTATYYCARDSSNYEGYFDYWGQGILVTVSS VL: EIVMTQSPATLSVSPGERATLSCRASQSVSNNLAWYQQKPGQAPRLLIYGASTRATGVPARFSGSDSGTEFSLTISSLQSEDFAVYFCQQYKDWPFTFGPGTKVEIK					no binding (tested: 1000 nM)	≥ 10 fold	98.2%	3210	78.5 nM	0.00593 s⁻¹	75500 M⁻¹ s⁻¹
20B9.HL scFv-Fc protein (Fc fusion, HL: heavy-chain variable domain at the N-terminus; not shown: human IgG1 Fc moiety) QVTLKESGPVLVKPTETLTLTCTVSGFSLSNARMGVSWIRQPPGKALEWLGHIFSTDEKSYSTSLRGRITISKDTSRGLVVLTLTNMDPVDTATYYCARDSSNYEGYFDFWGPGFLVTVSSGGGGSGGGGSGGGGSGGGGSEIVMTQSPATLSVSPGERATLSCRVSQSIGANLAWYQQKFGQAPRLLIYGASTRATGIPVRFSGGGSGTEFTLTISSLQSEDFAIYSCQQYIYWPFTFGPGTTVDIK	73.8 nM	0.0018 s⁻¹	24000 M⁻¹ s⁻¹	no binding (tested: 1000 nM)							
32A10.HL scFv-Fc protein (Fc fusion, HL: heavy-chain variable domain at the N-terminus; not shown: human IgG1 Fc moiety) QVTLKESGPVLVKPTETLTLTCTVSGFSLSNARMGVSWIRQPPGKALEWLAHIFSTDEKSIRRSLRSRLTLSKDTSKSQVVLTMTNMDPVDTATYFCARDSSNYEGYFDYWGQGTLVTVSSGGGGSGGGGSGGGGSGGGGSEVVMTQSPATLSVSPGERVTLSCRASQSVSSNFAWYQQRPGQAPRLLLYGATTRATGLPGRFSGSGSGTENILTISSLQSEDFAIYFCQQYKDWPFTFGPGSKVDIK	24.5 nM	0.0012 s⁻¹	47000 M⁻¹ s⁻¹	no binding (tested: 1000 nM)							
h62G7-L6/EQ scFv-Fc protein (Fc fusion, not shown: human IgG1 Fc moiety) DVVMTQSPLSLPVTLGQPASISCKSSQSLLYSNGKTYLNWFQQRPGQSPRRLIYQVSKLDSGVPDRFSGSGSGTDFTLKISRVEAEDVGVYYCGQDTHFPLTFGGGTKVEIKGGGGSGGGGSGGGGSGGGGSQVQLVQSGAEVKKPGASVKVSCKASGYTFTDYTLHWVRQAPGQGLEWMGGIWPITGGTTYNQKFKGRVTMTRDTSTSTVYMELSSLRSEDTAVYYCARGEAQGSWGQGTLVTVSS	101 nM	0.076 s⁻¹	750000 M⁻¹ s⁻¹	no binding (tested: 1000 nM)							
14C11.HL scFv-Fc protein (Fc fusion, HL: heavy-chain variable domain at the N-terminus; not shown: human IgG1 Fc moiety) QVTLKESGPVLVKPTETLTLTCTVSGFSLNNARMGVSWIRQPPGKALEWFAHIFSTDEKSFRTSLRSRLTLSKDTSKSQVVLTMTNMDPVDTATYYCARDSSNYEGYFDYWGQGILVTVSSGGGGSGGGGSGGGGSGGGGSEIVMTQSPATLSVSPGERATLSCRASQSVSNNLAWYQQKPGQAPRLLIYGASTRATGVPARFSGSDSGTEFSLTISSLQSEDFAVYFCQQYKDWPFTFGPGTKVEIK	104 nM	0.0043 s⁻¹	42000 M⁻¹ s⁻¹	no binding (tested: 1000 nM)							
14C11.LH scFv-Fc protein (Fc fusion, LH: light-chain variable domain at the N-terminus; not shown: human IgG1 Fc moiety) EIVMTQSPATLSVSPGERATLSCRASQSVSNNLAWYQQKPGQAPRLLIYGASTRATGVPARFSGSDSGTEFSLTISSLQSEDFAVYFCQQYKDWPFTFGPGTKVEIKGGGGSGGGGSGGGGSGGGGSQVTLKESGPVLVKPTETLTLTCTVSGFSLNNARMGVSWIRQPPGKALEWFAHIFSTDEKSFRTSLRSRLTLSKDTSKSQVVLTMTNMDPVDTATYYCARDSSNYEGYFDYWGQGILVTVSS	136 nM	0.0065 s⁻¹	48000 M⁻¹ s⁻¹	no binding (tested: 1000 nM)							
42G9.HL scFv-Fc protein (Fc fusion, HL: heavy-chain variable domain at the N-terminus; not shown: human IgG1 Fc moiety) QVTLKESGPVLLKPTETLTLTCTVSGFSLSNPRMGVSWIRQPPGKALEWFAHIFSTDEKSLKLSLRSRLTLSKDTSKSQVVLTMTNMAPVDSATYYCARDSSNYEGYFDFWGQGTLVTVSSGGGGSGGGGSGGGGSGGGGSEVVLTQSPATLSVSPGERATLSCRASQSVRSNLAWYQQKSGQAPRLLIYGSTIRATGVPARFSGSGSGTEFTLTISSLQSEDFAVYYCQQYSDWPFTFGPGTKVDIK	18.8 nM	0.0011 s⁻¹	56000 M⁻¹ s⁻¹	no binding (tested: 1000 nM)							
